Measured values published in US20260266848A1, “COMPOSITIONS AND METHODS FOR DIAGNOSING AND TREATING DYSTONIA” (Duke University, priority 2023, published 2026).

B1: Add1 (protein, UniProt P35611 1-737, looked up)
Alpha-adducin: MNGDSRAAVVTSPPPTTAPHKERYFDRVDENNPEYLRERNMAPDLRQDFNMMEQKKRVSMILQSPAFCEELESMIQEQFKKGKNPTGLLALQQIADFMTTNVPNVYPAAPQGGMAALNMSLGMVTPVNDLRGSDSIAYDKGEKLLRCKLAAFYRLADLFGWSQLIYNHITTRVNSEQEHFLIVPFGLLYSEVTASSLVKINLQGDIVDRGSTNLGVNQAGFTLHSAIYAARPDVKCVVHIHTPAGAAVSAMKCGLLPISPEALSLGEVAYHDYHGILVDEEEKVLIQKNLGPKSKVLILRNHGLVSVGESVEEAFYYIHNLVVACEIQVRTLASAGGPDNLVLLNPEKYKAKSRSPGSPVGEGTGSPPKWQIGEQEFEALMRMLDNLGYRTGYPYRYPALREKSKKYSDVEVPASVTGYSFASDGDSGTCSPLRHSFQKQQREKTRWLNSGRGDEASEEGQNGSSPKSKTKWTKEDGHRTSTSAVPNLFVPLNTNPKEVQEMRNKIREQNLQDIKTAGPQSQVLCGVVMDRSLVQGELVTASKAIIEKEYQPHVIVSTTGPNPFTTLTDRELEEYRREVERKQKGSEENLDEAREQKEKSPPDQPAVPHPPPSTPIKLEEDLVPEPTTGDDSDAATFKPTLPDLSPDEPSEALGFPMLEKEEEAHRPPSPTEAPTEASPEPAPDPAPVAEEAAPSAVEEGAAADPGSDGSPGKSPSKKKKKFRTPSFLKKSKKKSDS
B2: Capg (protein, UniProt P24452 1-352, looked up)
Macrophage-capping protein: MYTPIPQSGSPFPASVQDPGLHIWRVEKLKPVPIARESHGIFFSGDSYLVLHNGPEEASHLHLWIGQQSSRDEQGACAVLAVHLNTLLGERPVQHREVQGNESDLFMSYFPRGLKYYREGGVESAFHKTTSGARGAAIRKLYQVKGKKNIRATERPLSWDSFNTGDCFILDLGQNIFAWCGGKSNILERNKARDLALAIRDSERQGKAQVEIITDGEEPAEMIQVLGPKPALKEGNPEEDITADQTRPNAQAAALYKVSDATGQMNLTKVADSSPFASELLIPDDCFVLDNGLCAQIYIWKGRKANEKERQAALQVADGFISRMRYSPNTQVEILPQGRESPIFKQFFKNWK
B3: Mcm2 (protein, UniProt P97310 2-904, looked up)
DNA replication licensing …: AESSESLSASSPARQRRRISDPLTSSPGRSSRRADALTSSPGRDLPPFEDESEGLLGTEGPMEEEEDGEELIGDGMERDYRPIPELDVYEAEGLALDDEDVEELTASQREAAERTMRQRDREAGRGLGRMRRGLLYDSSEEDEERPARKRRHVERATEDGEEDEEMIESIENLEDLKGHSVREWVSMAGPRLEIHHRFKNFLRTHVDSHGHNVFKERISDMCKENRESLVVNYEDLAAREHVLAYFLPEAPAELLQIFDEAALEVVLAMYPKYDRITNHIHVRISHLPLVEELRSLRQLHLNQLIRTSGVVTSCTGVLPQLSMVKYNCSKCNFVLGPFCQSQNQEVKPGSCPECQSAGPFEINMEETIYQNYQRIRIQESPGKVAAGRLPRSKDAILLADLVDSCKPGDEIELTGIYHNNYDGSLNTANGFPVFATIILANHVAKKDNKVAVGELTDEDVKMITGLSKDQQIGEKIFASIAPSIYGHEDIKRGLALALFGGEPKNPGGKHKVRGDINVLLCGDPGTAKSQFLKYIEKVSSRAIFTTGQGASAVGLTAYVQRHPVSREWTLEAGALVLADRGVCLIDEFDKMNDQDRTSIHEAMEQQSISISKAGIVTSLQARCTVIAAANPIGGRYDPSLTFSENVDLTEPIISRFDVLCVVRDTVDPVQDEMLARFVVGSHVRHHPSNKKDEGLTNGGTLEPAMPNTYGVEPLPQEVLKKYIIYAKERVRPKLNQMDQDKVARMYSDLRKESMATGSIPITVRHIESMIRMAEAHARMHLRDYVMEDDVNMAIRVMMESFIDTQKFSVMRSMRKTFARYLSFRRDNNDLLLFILKQLVAEQVTYQRNRFGAQQDTIEIPEKDLMDKARQINIHNLSAFYDSDLFKFNKFSRDLKRKLILQQF
B4: Ddr2 (protein, UniProt Q62371 22-854, looked up)
Discoidin domain-containing …: KAQVNPAICRYPLGMSGGHIPDEDITASSQWSESTAAKYGRLDSEEGDGAWCPEIPVQPDDLKEFLQIDLRTLHFITLVGTQGRHAGGHGIEFAPMYKINYSRDGSRWISWRNRHGKQVLDGNSNPYDVFLKDLEPPIVARFVRLIPVTDHSMNVCMRVELYGCVWLDGLVSYNAPAGQQFVLPGGSIIYLNDSVYDGAVGYSMTEGLGQLTDGVSGLDDFTQTHEYHVWPGYDYVGWRNESATNGFIEIMFEFDRIRNFTTMKVHCNNMFAKGVKIFKEVQCYFRSEASEWEPTAVYFPLVLDDVNPSARFVTVPLHHRMASAIKCQYHFADTWMMFSEITFQSDAAMYNNSGALPTSPMAPTTYDPMLKVDDSNTRILIGCLVAIIFILLAIIVIILWRQFWQKMLEKASRRMLDDEMTVSLSLPSESSMFNNNRSSSPSEQESNSTYDRIFPLRPDYQEPSRLIRKLPEFAPGEEESGCSGVVKPAQPNGPEGVPHYAEADIVNLQGVTGGNTYCVPAVTMDLLSGKDVAVEEFPRKLLAFKEKLGEGQFGEVHLCEVEGMEKFKDKDFALDVSANQPVLVAVKMLRADANKNARNDFLKEIKIMSRLKDPNIIRLLAVCITEDPLCMITEYMENGDLNQFLSRHEPLSSCSSDATVSYANLKFMATQIASGMKYLSSLNFVHRDLATRNCLVGKNYTIKIADFGMSRNLYSGDYYRIQGRAVLPIRWMSWESILLGKFTTASDVWAFGVTLWETFTFCQEQPYSQLSDEQVIENTGEFFRDQGRQIYLPQPALCPDSVYKLMLSCWRRETKHRPSFQEIHLLLLQQGAE
B5: Srp68 (protein, UniProt Q8BMA6 1-625, looked up)
Signal recognition particle …: MAAEKQIPGGGSGGGGSGSGGGGGGSGGGRSAGGDENKENERPSAGSKANKEFGDSLSLEILQIIKESQQQHGLRHGDFQRYRGYCSRRQRRLRKTLNFKMGNRHKFTGKKVTEELLTDNRYLLLVLMDAERAWSYAMQLKQEANTEPRKRFHLLSRLRKAVKHAEELERLCESNRVDAKTKLEAQAYTAYLSGMLRFEHQEWKSAIEAFNKCKTIYEKLASAFTEEQAVLYNQRVEEISPNIRYCAYNIGDQSAINELMQMRLRSGGTEGLLAEKLEALITQTRAKQAATMSEVEWRGRTVPVKIDKVRIFLLGLADNEAAIVQAESEETKERLFESMLSECRDALQAVREELKPDQKQRDYALDGESGKVSNLQYLHSYLTYIKLSTAIRRNENMAKGLHRALLQQQPEDDSKRSPRPQDLIRLYDIILQNLVELLQLPGLEEDRTFQKEISLKTLVFKAYRCFFIAQSYVLVKKWSEALVLYDRVLKYANEVSSHGGASKNSLKDLPDVQELITQVRSEKCSLQAAAILDANDSHQTDTSSQVKDNTPLVERFESFCLDPSLVTKQANLVHFPPGFQPIPCKPLFFDLALNHVAFPPLEDKLEQKTKSGLTGYIKGIFGFRS
B6: Pdia6 (protein, UniProt Q922R8 20-440, looked up)
Protein disulfide-isomerase A6: LYSSSDDVIELTPSNFNREVIQSDGLWLVEFYAPWCGHCQRLTPEWKKAATALKDVVKVGAVNADKHQSLGGQYGVQGFPTIKIFGANKNKPEDYQGGRTGEAIVDAALSALRQLVKDRLGGRSGGYSSGKQGRGDSSSKKDVVELTDDTFDKNVLDSEDVWMVEFYAPWCGHCKNLEPEWAAAATEVKEQTKGKVKLAAVDATVNQVLASRYGIKGFPTIKIFQKGESPVDYDGGRTRSDIVSRALDLFSDNAPPPELLEIINEDIAKKTCEEHQLCVVAVLPHILDTGAAGRNSYLEVLLKLADKYKKKMWGWLWTEAGAQYELENALGIGGFGYPAMAAINARKMKFALLKGSFSEQGINEFLRELSFGRGSTAPVGGGSFPTITPREPWDGKDGELPVEDDIDLSDVELDDLEKDEL
B7: Aco1 (protein, UniProt P28271 1-889, looked up)
Cytoplasmic aconitate …: MKNPFAHLAEPLDAAQPGKRFFNLNKLEDSRYGRLPFSIRVLLEAAVRNCDEFLVKKNDIENILNWNVMQHKNIEVPFKPARVILQDFTGVPAVVDFAAMRDAVKKLGGNPEKINPVCPADLVIDHSIQVDFNRRADSLQKNQDLEFERNKERFEFLKWGSQAFCNMRIIPPGSGIIHQVNLEYLARVVFDQDGCYYPDSLVGTDSHTTMIDGLGVLGWGVGGIEAEAVMLGQPISMVLPQVIGYKLMGKPHPLVTSTDIVLTITKHLRQVGVVGKFVEFFGPGVAQLSIADRATIANMCPEYGATAAFFPVDEVSIAYLLQTGREEDKVKHIQKYLQAVGMFRDFNDTSQDPDFTQVVELDLKTVVPCCSGPKRPQDKVAVSEMKKDFESCLGAKQGFKGFQVAPDRHNDRKTFLYSNSEFTLAHGSVVIAAITSCTNTSNPSVMLGAGLLAKKAVEAGLSVKPYIKTSLSPGSGVVTYYLRESGVMPYLSQLGFDVVGYGCMTCIGNSGPLPEPVVEAITQGDLVAVGVLSGNRNFEGRVHPNTRANYLASPPLVIAYAIAGTVRIDFEKEPLGVNAQGRQVFLKDIWPTRDEIQAVERQHVIPGMFKEVYQKIETVNKSWNALAAPSEKLYAWNPKSTYIKSPPFFESLTLDLQPPKSIVDAYVLLNLGDSVTTDHISPAGNIARNSPAARYLTNRGLTPREFNSYGSRRGNDAIMARGTFANIRLLNKFLNKQAPQTVHLPSGETLDVFDAAERYQQAGLPLIVLAGKEYGSGSSRDWAAKGPFLLGIKAVLAESYERIHRSNLVGMGVIPLEYLPGETADSLGLTGRERYTINIPEDLKPRMTVQIKLDTGKTFQAVMRFDTDVELTYFHNGGILNYMIRKMAQ

Assays:
DYT-TOR1A MEF EVs = assay: Quantitative LC-MS/MS proteomics of EVs from drug-treated DYT-TOR1A MEF cultures (ritonavir, salubrinal); format: cell-based, mouse; parameters: key to RTV Corrective Direction / RTV Corrective Direction, Grwd1 / RTV Corrective Direction, Srrm2 / RTV Corrective Direction, Rbm17 / RTV Corrective Direction, Dcaf8 / RTV Corrective Direction, Edil3 / RTV Corrective Direction, Timp3 / RTV Corrective Direction, Heatr3 / RTV Corrective Direction, Brd4 / RTV Corrective Direction, P3h4 / RTV Corrective Direction, Pacsin3 / RTV Corrective Direction, Naa50 / RTV Corrective Direction, Lpar6 / RTV Corrective Direction, Ndrg1 / RTV Corrective Direction, Kntc1 / RTV Corrective Direction, Cdk11b / RTV Corrective Direction, Sumo1 / RTV Corrective Direction, Lsm4 / RTV Corrective Direction, Hmga2 / RTV Corrective Direction, Cstf1 / RTV Corrective Direction, Tes / RTV Corrective Direction, Sbno1 / RTV Corrective Direction, Unc119b / RTV Corrective Direction, Cfdp1 / RTV Corrective Direction, Sec61b: YES = protein abundance effect opposite to DYT/WT; settings: EV protein abundance; for RTV Corrective Direction: DYT + RTV (ritonavir) vs DYT, direction compared with DYT/WT; for DYT + RTV/DYT Cohen's d: ritonavir (RTV)-treated DYT vs DYT
WT MEF EVs = assay: Quantitative LC-MS/MS proteomics of EVs from ISRIB-treated WT MEF cultures; format: cell-based, mouse; parameters: key to ISRIB and DYT Parallel Direction / ISRIB and DYT Parallel Direction, Ctdsp1 / ISRIB and DYT Parallel Direction, Pcdh19 / ISRIB and DYT Parallel Direction, Tspan7 / ISRIB and DYT Parallel Direction, Myo1e / ISRIB and DYT Parallel Direction, Plpp3 / ISRIB and DYT Parallel Direction, Sh3bp4 / ISRIB and DYT Parallel Direction, Dnajc7 / ISRIB and DYT Parallel Direction, Drg1 / ISRIB and DYT Parallel Direction, Maea: YES = protein abundance effect similar to DYT/WT; settings: EV protein abundance; for WT + ISRIB/WT Cohen's d: ISRIB-treated WT vs WT; for ISRIB and DYT Parallel Direction: WT + ISRIB vs WT, direction compared with DYT/WT

| Molecule | RTV Corrective Direction (DYT-TOR1A MEF EVs) | DYT + RTV/DYT Cohen's d (DYT-TOR1A MEF EVs) | WT + ISRIB/WT Cohen's d (WT MEF EVs) | ISRIB and DYT Parallel Direction (WT MEF EVs) |
| --- | --- | --- | --- | --- |
| B1 | YES | 4.30 | 0.00 | YES |
| B2 | YES | 3.57 | −0.61 | YES |
| B3 | YES | 3.96 | −2.10 | YES |
| B4 | YES | 0.93 | −7.89 | YES |
| B5 | YES | 2.70 | −1.21 | YES |
| B6 | YES | 3.27 | −1.84 | YES |
| B7 | YES | 3.33 | −1.03 | YES |
